# B1: human recombinant secPHEX (Homo sapiens) (protein)
# chain: SLQAKQEYCLKPECIEAAAAILSKVNLSVDPCDNFFRFACDGWISNNPIPEDMPSYGVYPWLRHNVDLKLKELLEKSISRRRDTEAIQKAKILYSSCMNEKAIEKADAKPLLHILRHSPFRWPVLESNIGPEGVWSERKFSLLQTLATFRGQYSNSVFIRLYVSPDDKASNEHILKLDQATLSLAVREDYLDNSTEAKSYRDALYKFMVDTAVLLGANSSRAEHDMKSVLRLEIKIAEIMIPHENRTSEAMYNKMNISELSAMIPQFDWLGYIKKVIDTRLYPHLKDISPSENVVVRVPQYFKDLFRILGSERKKTIANYLVWRMVYSRIPNLSRRFQYRWLEFSRVIQGTTTLLPQWDKCVNFIESALPYVVGKMFVDVYFQEDKKEMMEELVEGVRWAFIDMLEKENEWMDAGTKRKAKEKARAVLAKVGYPEFIMNDTHVNEDLKAIKFSEADYFGNVLQTRKYLAQSDFFWLRKAVPKTEWFTNPTTVNAFYSASTNQIRFPAGELQKPFFWGTEYPRSLSYGAIGVIVGHEFTHGFDNNGRKYDKNGNLDPWWSTESEEKFKEKTKCMINQYSNYYWKKAGLNVKGKRTLGENIADNGGLREAFRAYRKWINDRRQGLEEPLLPGITFTNNQLFFLSYAHVRCNSYRPEAAREQVQIGAHSPPQFRVNGAISNFEEFQKAFNCPPNSTMNRGMDSCRLW
# notes: pure soluble form of PHEX (secPHEX); made in house
# How the values were obtained:
# [1] = substrate: C[C@H](NC(=O)[C@H](CC(=O)O)NC(=O)[C@H](CCC(=O)O)NC(=O)[C@H](CO)NC(=O)[C@H](CCCNC(=N)N)NC(=O)c1ccccc1N)C(=O)NCC(=O)N[C@@H](Cc1ccccc1)C(=O)N[C@@H](CCC(N)=O)C(=O)NCCNc1ccc([N+](=O)[O-])cc1[N+](=O)[O-]; experiment: Kinetic parameters for hydrolysis of internally quenched fluorogenic peptides by secPHEX; type: biochemical, human; conditions: other: 37° C., 10 mM Bis-Tris buffer pH 5.5, 150 mM NaCl
# Outline: (§1)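 Purified human recombinant secPHEX hydrolysing internally quenched fluorogenic peptides at 37° C in 10 mM Bis-Tris pH 5.5, 150 mM NaCl; fluorescence (ex 320, em 420 nm) followed continuously, <5% substrate hydrolysed, inner-filter corrected. Km and kcat by non-linear regression; kcat/Km under [S]<<Km where applicable.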
# [2] = substrate: Nc1ccccc1C(=O)NCC(=O)N[C@@H](Cc1ccccc1)C(=O)N[C@@H](CO)C(=O)N[C@@H](CC(=O)O)C(=O)N[C@@H](Cc1ccc(O)cc1)C(=O)N[C@@H](CCCCNc1ccc([N+](=O)[O-])cc1[N+](=O)[O-])C(=O)O; experiment: as above; type: biochemical, human; conditions: other: 37° C., 10 mM Bis-Tris buffer pH 5.5, 150 mM NaCl
# Outline: as §1
protein,measurement,setting,value
B1,Km,[1],4.1 µM
same,kcat,[1],0.06 s⁻¹
same,kcat/Km,[1],14600 M⁻¹ s⁻¹
same,Km,[2],3.0 µM
same,kcat,[2],0.5 s⁻¹
same,kcat/Km,[2],166700 M⁻¹ s⁻¹

# From US20060292657A1, “Phex substrates and methods using same” (priority 2003, published 2006)
